In US20190367633A1 (BEIJING HANMI PHARMACEUTICAL, published 2019):

Legend:
[1] = molecular target: T1, PD-1 on PD-1-overexpressing CHO/PD-1 cells (GenScript, Cat. No. M00529) (UniProt Q15116 25-288, limits assumed); experiment: flow cytometry, association of PKH26-stained CHO/PD-1 and CFSE-stained SK-BR-3 cells
T1 construct: whole, on cells

[2] = molecular target: T2, Recombinant human PD-1 (Beijing Yiqiao Shenzhou, Cat. No. 10377-H08H) (human, UniProt Q15116 25-167); experiment: ELISA, antigen coated at 1 ug/mL
T2 construct: Bought protein coated on the ELISA plate
Procedure: The coating was performed at 4° C. overnight. […] Color development was terminated by adding 100 μL/well of 1 M H₂SO₄. The absorbance at 450 nm was read on a microplate reader.

T1 sequence (Q15116 25-288 limits assumed, one chain of several): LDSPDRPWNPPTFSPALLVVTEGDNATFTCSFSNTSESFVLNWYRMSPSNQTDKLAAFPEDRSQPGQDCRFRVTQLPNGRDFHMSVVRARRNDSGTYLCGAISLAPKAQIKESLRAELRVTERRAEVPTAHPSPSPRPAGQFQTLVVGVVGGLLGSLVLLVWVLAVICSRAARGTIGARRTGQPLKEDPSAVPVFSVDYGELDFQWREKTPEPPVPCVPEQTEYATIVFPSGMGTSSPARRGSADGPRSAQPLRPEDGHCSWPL
T2 sequence (Q15116 25-167 limits assumed): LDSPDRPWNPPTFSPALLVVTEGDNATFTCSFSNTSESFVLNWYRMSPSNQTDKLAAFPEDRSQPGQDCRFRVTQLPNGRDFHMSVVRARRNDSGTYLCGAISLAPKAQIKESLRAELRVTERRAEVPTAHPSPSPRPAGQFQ

B1: anti-PD-1pem/anti-HER2 heterodimeric bispecific antibody (bispecific antibody, human IgG1, kappa)
heavy 1: not shown
light 1: EIVLTQSPATLSLSPGERATLSCRASKGVSTSGYSYLHWYQQKPGQAPRLLIYLASYLESGVPARFSGSGSGTDFTLTISSLEPEDFAVYYCQHSRDLPLTFGGGTKVEIKRTVAAPSVFIFPPSDEQLKSGTASVVCLLNNFYPREAKVQWKVDNALQSGNSQESVTEQDSKDSTYSLSSTLTLSKADYEKHKVYACEVTHQGLSSPVTKSFNRGEC
heavy 2: not shown
light 2: not shown
notes: also called PD-1/HER2 heterodimeric antibody; PD-1/HER2 heterodimer
- binding result [1]: binds
- binding result [2]: binds
